Here are results for 1 protein from article PMC4264766, “Purification, Cloning, Characterization, and N-Glycosylation Analysis of a Novel β-Fructosidase from Aspergillus oryzae FS4 Synthesizing Levan- and Neolevan-Type Fructooligosaccharides” (PLoS ONE, 2014).

Substrate in this data set: OC[C@H]1O[C@@](CO)(O[C@H]2O[C@H](CO)[C@@H](O)[C@H](O)[C@H]2O)[C@@H](O)[C@@H]1O
In words: initial rates, glucose release by glucose assay kit, confirmed by HPLC; Michaelis-Menten fit. The format is biochemical, Aspergillus oryzae. To be noted: total activity (glucose release), 55°C, potassium phosphate buffer, 0.005–0.5 M sucrose.

From the text: initial rates, glucose release by glucose assay kit, confirmed by HPLC; Michaelis-Menten fit on N.BfrA (native β-fructosidase BfrA)

B1: N.BfrA (native β-fructosidase BfrA) (Aspergillus oryzae) (protein)
chain: IDYNAAPPNLSTLANGSLYDTWRPRAHILPPNGRIGDPCGHYTDPDTGLFHVGFLYNGSGIAGATTDDMVRFRDLNPNGSQFIMPGGKNDPVAVFDGSVIPKGIDDKPTLLYTSVTSLPIHWSIPYNPGAETQSLAVTSNGGRNFTKLDRPPVIPLPPSDSDVTAFRDPYAFQSPELDAAADSAPGTWYTAISGGVHEDGPGQFLYRQDQKEMSLESWEYLGLWWQEKVNTTWGNGDWAGGWGFNFETGNVFGLNEEGYSVDGEMFMTLGTEGSGTPIVSQVSSIHDMLWAAGNVSNNGNVTFTPTMAGVFDWGASGYAAAGHILPATSQVSTKSGAPDRFISFVWLTGDLFEQAKGYPTSQQNWVGTLLLPRELHIKTISNVVDNELAREEGSSWRVERGQSGIELKTLGIDIARETREALMSGPKITEPERTSKEAGLVPFQVSPTTKFHVLTAQLSFPRSARNSDLQAGFQVLSSDLESTTIYYQFSNESIIVDRSNTSAAAKTTNGIVSTNESGRLRLFDLQGDAQEIETLDLTVVVDNSVLEIYANGRFALSTWARSWYKNSTDIKFYHNGAGEVTFSNVTVSEGLFEAWPERV
notes: native, purified from A. oryzae FS4 mycelia; N-glycosylated; 95 kDa by SDS-PAGE, monomer; CDS 1860 bp; mature 65298 Da calculated; 40 kDa contaminant band
B1: the Km came out at 37.19 ± 5.28 mM, the maximal velocity (Vmax) stood at 1.28e+08 µM/min/mg, the catalytic constant (kcat) is 10000 ± 390 s⁻¹ and the kcat/Km was found to be 269000 ± 39700 M⁻¹ s⁻¹.
